According to US20120232127A1, “REGULATION OF NEUROTRANSMITTER RELEASE THROUGH ANION CHANNELS” (KOREA INSTITUTE OF SCIENCE AND TECHNOLOGY, priority 2008, published 2012):

Biological target: T1, mBest1 (Mus musculus, UniProt O88870)
T1 sequence (O88870 1-551): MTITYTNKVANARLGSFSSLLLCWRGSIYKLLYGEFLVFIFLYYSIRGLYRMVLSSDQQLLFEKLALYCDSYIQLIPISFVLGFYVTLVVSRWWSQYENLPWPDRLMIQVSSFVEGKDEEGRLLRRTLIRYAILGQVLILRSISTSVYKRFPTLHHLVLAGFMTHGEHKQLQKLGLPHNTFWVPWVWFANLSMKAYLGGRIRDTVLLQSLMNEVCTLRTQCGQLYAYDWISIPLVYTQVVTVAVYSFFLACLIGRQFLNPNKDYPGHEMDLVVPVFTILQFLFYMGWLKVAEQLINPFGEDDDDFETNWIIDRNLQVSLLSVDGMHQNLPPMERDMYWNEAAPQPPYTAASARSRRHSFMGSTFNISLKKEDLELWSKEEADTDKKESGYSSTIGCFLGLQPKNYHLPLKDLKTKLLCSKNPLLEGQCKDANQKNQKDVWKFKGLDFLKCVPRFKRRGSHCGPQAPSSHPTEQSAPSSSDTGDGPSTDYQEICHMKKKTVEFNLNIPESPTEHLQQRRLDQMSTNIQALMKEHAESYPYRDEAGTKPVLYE
Test: CAAC current in astrocytes expressing shRNA
Assay type: cell-based
Parameters: endogenous in cells; host or cells: cultured mouse cortical astrocytes
Method: For plasmid-based shRNA expression, the following complementary oligonucleotides were annealed and inserted into the HindIII/BglII sites of pSUPER-GFP vector (Oligo Engine):
The efficacy of the construct to interfere with mBest1 expression was tested against heterologously expressed mBest1 in HEK293T cells (ATCC) by measuring specific CAAC currents. For lentivirus-based shRNA expression, lentiviral vector containing mBest1 gene was constructed by inserting synthetic double-strand oligonucleotides 5′-[…] […]-3′ (SEQ ID NO: 30) into pstI-XbaI restriction enzyme sites of shLenti2.4 CMV lentiviral vector (Macrogen) and verified by sequencing. Scrambled oligonucleotides inserted shLenti construct (Macrogen) was used as control. […]
Patch pipettes which have 3-6MΩ of resistance are filled with the standard intracellular solution. […] The concentration of free [Ca^2+]i in the solution was determined (Kuruma, A. & Hartzell, H. C. Bimodal control of a Ca(^2+)-activated Cl(−) channel by difference Ca(^2+) signals. J Gen Physiol 115, 59-80 (2000), which is hereby incorporated by reference for all purposes as if fully set forth herein). […]

B1: mBest1 shRNA: mBest1-specific short hairpin RNA, SEQ ID NO: 3 and 4 (lentiviral: SEQ ID NO: 30), nucleotides 563-582 of mBest1 (nucleic acid)
chain 1: GATCCCCTTGCCAACTTGTCAATGAATTCAAGAGATTCATTGACAAGTTGGCAATTTTTA
chain 2: GGGAACGGTTGAACAGTTACTTAAGTTCTCTAAGTAACTGTTCAACCGTTAAAAATTCGA
Q: With B1 as the molecule, how does the “CAAC current in astrocyte” value read?
A: Its value is 49.7±8.3 pA.
